Measurements as given in patent US20210332112A1.

Target: pertussis toxin (Bordetella pertussis) (UniProt P04977)
Test: ELISA, plate coated with pertussis toxin, antibody titrated, detection with goat anti-human kappa constant domain-HRP [panel C]

For hu1B7-YTE extended half-life antibody, the EC50 (read off the curve) was 0.04 µg/mL.
